Assay results published in publication doi:10.1101/2024.05.01.592117 (2024).

Assays:
[1] = target: T1, 40S small ribosomal subunit (salt-washed, purified) (human, UniProt P23396 1-243); assay: FP; 40S with eIF1 and eIF1A
[2] = target: 43S preinitiation complex (40S + eIFs 1, 1A, 5, 3j, eIF2-TC and eIF3) (human, UniProt P23396 1-243; P41567 1-113; P47813 1-144; P55010 1-431; O75822 1-258; P55884 …); assay: FP
[3] = target: T1, 40S small ribosomal subunit …; assay: FP

B1: fluorescence-labeled Pdcd4-NTD (FL-Pdcd4-NTD, residues 1-156) (domain or fragment)
chain: MDVENEQILNVNPADPDNLSDSLFSGDEENAGTEEIKNEINGNWISASSINEARINAKAKRRLRKNSSRDSGRGDSVSDSGSDALRSGLTVPTSPKGRLLDRRSRSGKGRGLPKKGGAGGKGVWGTPGQVYDVEEVDVKDPNYDDDQENCVYETVV
modifications: fluorescein-5-maleimide on the single cysteine C150
Q: Which Kd [1] does the source give for B1 here?
A: The Kd was 71 nM.

Q: And the Kd [2]?
A: The Kd was roughly 3000 nM.

Q: And the Kd [3]?
A: Its Kd is roughly 5 nM.
